Test results: patent US5503978

Assays:
[1] = target: T1, HIV-1 reverse transcriptase (HIV-1) (UniProt P04585+P04585); assay: inhibition; settings: almost no inhibition at 81 nM
[2] = target: T1, HIV-1 reverse transcriptase (HIV-1); assay: filter; settings: apparent Kd of degenerate library
[3] = system: AMV reverse transcriptase (Avian myeloblastosis virus); settings: intramolecular 3' extension to end of template; 100 nM RT

Row | Sequence | Ki [1] [µM] | Kd [2] [µM] | activity [3] [% initiation]
1 | CCCCTGCAGGTGATTTTGCTCAAGTNNNNNNNNNNNNNNNNNNNNNNNNNNNNNNNNNNNAGTATCGCTAATCAGGCGGAT [R0 degenerate 35N ssDNA library] | > 3 | 1.4 | 
2 | ATCCGCCTGATTAGCGATACTTACGTGAGCGTGCTGTCCCCTAAAGGTGATACGTCACTTGAGCAAAATCACCTGCAGGGG [RT26] |  |  | 50
